Results: publication PMC13423832

Biological target: COX4I1
Experiment: AP-MS (FLAG affinity purification, protein intensity)
Settings: HEK293T transiently overexpressing FLAG-tagged COX5A; n = 3 biological replicates, mean ± SD; parent: est. 1.1e10; read off a plot

Substance | response
COX5A-FLAG, wild type (from UniProt P20674) D81W | 2.5e+10 intensity
COX5A-FLAG, wild type (from UniProt P20674) T79G | 6e+09 intensity
COX5A-FLAG, wild type (from UniProt P20674) Y80W | 5e+09 intensity
